Results reported in KR20220012792A (dated 2022).
Where two headings read alike, the source gives them in different places.

Key:
Assay in all cases: cell-based or functional assay
[1] = target: T1, S 단백질 of SARS-CoV-2 hCoV-19/South Korea/KUMC17/2020 (614G) (SARS-CoV-2)
[2] = target: S 단백질 of SARS-CoV-2 hCoV-19/South Korea/KCDC9481/2020 (614G, G형) (SARS-CoV-2)
[3] = target: T1, S 단백질 of SARS-CoV-2 hCoV-19/South …; remark: listed apart in the source
[4] = target: T2, S 단백질 of SARS-CoV-2 hCoV-19/Korea/KCDC10847/2020 (GH형) (SARS-CoV-2)
[5] = target: S 단백질 of SARS-CoV-2 영국변이바이러스주 hCoV-19/South Korea/KDCA0838/2020 (SARS-CoV-2)
[6] = target: T1, S 단백질 of SARS-CoV-2 hCoV-19/South …; remark: listed apart in the source
[7] = target: T2, S 단백질 of SARS-CoV-2 …; remark: listed apart in the source
[8] = target: T1, S 단백질 of SARS-CoV-2 hCoV-19/South …; remark: listed apart in the source

B1: No. 139 항체 (Full IgG) (antibody, V domains shown)
VH: QITLKESGPTLVKPTQTLTLTCSFSGFSLSTSGVGVGWIRQPPGKALEWLALIDWDDNKYHTTSLKTRLTISKDTSKNQVVLTMTNMDPVDTATYYCARIPGFLRYRNRYYYYGMDVWGQGTTVTVSS
VL: ELVLTQPPSVSAAPGQKVTISCSGSSSNIGNNYVSWYQQLPGTAPKLLIYDNNKRPSGIPDRFSGSKSGTSATLGITGLQTGDEADYYCGTWDSSLSAGVFGGGTELTVL
- IC50 (ng/ml), PRNT [1]: 3.37 ng/mL
- IC50 (ng/ml), PRNT [2]: 10.6 ng/mL
- IC50 (ng/ml), PRNT [3]: 5.77 ng/mL
- IC50 (ng/ml), PRNT [4]: 10.4 ng/mL
- IC50 (ng/ml), PRNT [5]: 9.62 ng/mL
- IC50 (ng/ml), PRNT [6]: 4.22 ng/mL
- IC50 (ng/ml), PRNT [7]: 9.31 ng/mL
- IC50, PRNT [8]: 5.73 ng/mL
